Experimental data as given in the supplement of paper PMC9170038.

System: MS2 coat protein
Test: apparent KD of MS2 coat protein; designed switch direction (-1 OFF switch, 1 ON switch): 1; higher = weaker reporter binding
Method in brief: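 The reported apparent KD is a per-design median over clusters, from curve fits of normalised cluster fluorescence. Protein titrations used SNAP-549-labelled MS2 coat protein, doubled from 0.7 or 1.5 nM to 3 µM, in Tris-HCl pH 7.5 buffer with KCl, MgCl2, BSA, DTT, tRNA and Tween-20, with no input, 200 uM small-molecule ligand, or an oligonucleotide input. The RNA switches were transcribed on Illumina chips by stalled E. coli RNA polymerase.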

[1] = input ligand: microRNA oligo, concentration not stated
[2] = Eterna round: R95, input ligand: FMN 200 uM
[3] = Eterna round: R95, input ligand: microRNA oligo, concentration not stated
[4] = Eterna round: R95, input ligand: none

Sequence	apparent KD of MS2 coat protein (input ligand: FMN 200 uM)	apparent KD of MS2 coat protein [1]	apparent KD of MS2 coat protein (input ligand: none)	apparent KD of MS2 coat protein [2]	apparent KD of MS2 coat protein [3]	apparent KD of MS2 coat protein [4]
UAGUUUCAACGAGGAUAUAAUAGGUUCUAUUCGUGAUAUUGCGUACAUGAGGAUCACCCAUGUUAUUAGAAGGCGUAUGGGUUU [JR_SSNG2_Sub086] (Eterna round: R96, puzzle: Same State NG 2)	89.9 nM	59.8 nM	77.9 nM	–	–	–
UCAAGCGUUUGGCUCGUUUUAUGUUUUGUACAUGAGGAUCACCCAUGUUUUGUACGAUCCAGUUAGAUGGUAUUUUG [JR_SHM208A_Sub039] (puzzle: Sensor for hsa-mir-208a)	–	–	–	39.6 nM	93 nM	56.8 nM
UCGGGCGUACUUGCUGACAUGAGGAUCACCCAUGUAAAUGGGAAGGAUAUGGUUCCGUUUCGGUACCAGAAGGUCCUGGGUGCU [salish99_SSNG3_r04_310] (Eterna round: R96, puzzle: Same State NG 3)	459 nM	748 nM	1030 nM	–	–	–
UCUGCAAGAACAGGAUAUGGGUUCAGAGCGGGAGUGCGCUUUGACACAUGAGGAUCACCCAUGUCCCAGAAGGGUUCAUGCGGC [Eseseste] (Eterna round: R96, puzzle: Same State NG 2)	62.7 nM	484 nM	364 nM	–	–	–
UCUUGGUUUUUGCUCGUUUUUUGUGUUGAACAUGAGGAUCACCCAUGUAUUGUACAAUCCAGUUUAAUAAUGGUCCG [JMF 49] (puzzle: Sensor for hsa-mir-208a)	–	–	–	105 nM	87.3 nM	130 nM
UCUUGGUUUUUGCUCGUUUUUUGUGUUGAACAUGAGGAUCACCCAUGUAUUGUACGGUCCAGUUUGGUGGUAGUCCG [JMF 71] (puzzle: Sensor for hsa-mir-208a)	–	–	–	32.9 nM	24.4 nM	38 nM
UCUUGGUUUUUGCUCGUUUUUUGUGUUGAACAUGAGGAUCACCCAUGUAUUGUACGGUCCGAUUUAAUGAUGGUCCA [JMF 39] (puzzle: Sensor for hsa-mir-208a)	–	–	–	32.4 nM	19.7 nM	34.1 nM
UGAAUGGUGAUAGGAUAUACAUGAGGAAUCCUCGUAGAAGGAUCACGACAUGAGGAUCACCCAUGUAGCCGUCCGUAGACGGCA [JL SSNG1 1.23] (Eterna round: R96, puzzle: Same State NG 1)	99.7 nM	778 nM	242 nM	–	–	–
UGACACACGGCAGGAUAUCCUUAGCAAAGCUAAGGAGAAGGGCCUCAUGUCGUGGAAACGUGACAUGAGGAUCACCCAUGUCGC [Omei SS(NG)1 Cv8] (Eterna round: R96, puzzle: Same State NG 1)	58.7 nM	5.65 nM	34.1 nM	–	–	–
UGAGCCGGCACUGAGGAUAUUCAUAUUAAAACAUGAGGAUCACCCAUGUAGGCCAGAAGGCCUUGGGAGAAGGCAGGUCGGCUCA [Mat - Same State 2 - Mod of UCT - D62] (Eterna round: R96, puzzle: Same State 2)	19.5 nM	190 nM	311 nM	–	–	–
UGAGCCGGCACUGAGGAUAUUCAUAUUAAAACAUGAGGAUCACCCAUGUAGGCCAGAAGGCCUUGGGAGAAGGCAGGUCGGCUCA [Mat - Same State 2 - Mod of UCT - D62] (puzzle: Same State 2)	–	–	–	–	200 nM	–
UGCCAUUGUAUAUUGGUGCAAGCUUUUUGACAUGAGGAUCACCCAUGUACUCGUCUUAUGUGCAGUCCGUAGACUGC [JL-shm-2.23 Brourd mod] (puzzle: Sensor for hsa-mir-208a)	–	–	–	24 nM	13.5 nM	22.8 nM
UGCUAUUGUAUAUUGGUGCAAGCUUUUUGACAUGAGGAUCACCCAUGUACUCGUCUUUAGCGCAGUCCGUAGACUGC (puzzle: Sensor for hsa-mir-208a)	–	–	–	52.4 nM	13.5 nM	56.6 nM
UGCUGUGUGGUAGGAUAUGUAGGAUAUGUACAUGAGGAUCACCCAUGUCAGUUAAUGACAGAAGGAUAGAAGGACCAGAGGGCU [pwkr ssNG2 2FMN 1F5s.3] (Eterna round: R96, puzzle: Same State NG 2)	254 nM	205 nM	249 nM	–	–	–
UGGAGAAGUCAAGGAUAUGCUACCGUUUCGGUAGCAGAAGGUGAUCACAUGAGGAUCACCCAUGUAUGCAUGCGUGAGCGUGCU [JL SSNG1 3.55] (Eterna round: R96, puzzle: Same State NG 1)	337 nM	15.2 nM	125 nM	–	–	–
UGGAUCUAGGCUUGCCUGGGUCCAUGUUGACAUGAGGAUCACCCAUGUGUUUUUUUUUUGCUUUUUGUUUGUCAACA [JL A Humble Attempt mod 3] (puzzle: Sensor for hsa-mir-208a)	–	–	–	19.1 nM	12.3 nM	21.7 nM
UGGCUCAGACGAGGAUAUAUGCGAUCACAUGAGGAUCACCCAUGUCUCGAGCUUCGGCUCGAGGCAUAGAAGGCGUCUGAGCCU [SSNG2/4-A3] (Eterna round: R96, puzzle: Same State NG 2)	13 nM	25.9 nM	27.7 nM	–	–	–
UGGCUCAGACGAGGAUAUAUGUAAUAACAUGAGGAUCACCCAUGUGUCGAGCUUCGGCUCGACACAUAGAAGGCGUCUGAGCCA [SSNG2/2-A2] (Eterna round: R96, puzzle: Same State NG 2)	14.7 nM	17.9 nM	28.2 nM	–	–	–
UGGCUCAGACGAGGAUAUGAUCAUGGCGCUUCGGCGCAUACAUGAGGAUCACCCAUGUAAAGUGAUCAGAAGGUGUCUGAGCCA [SSNG2/7-B2] (Eterna round: R96, puzzle: Same State NG 2)	13 nM	11.6 nM	14.5 nM	–	–	–
UGGCUCAGACUAGGAUAUAUGCGAUCACAUGAGGAUCACCCAUGUCUCGAGCUUCGGCUCGAGGCAUAGAAGGAGUCUGAGCCU [SSNG2/4-D3] (Eterna round: R96, puzzle: Same State NG 2)	14.8 nM	35.5 nM	46.7 nM	–	–	–
UGGUUGGAGAGAGAGGAUAUCCAAUUUUCAACAUGAGGAUCACCCAUGUAGAACGUAGGUAAUUGGGAGAAGGCUCAAGAGACAU [salish99_ss2_r3_100] (puzzle: Same State 2)	–	–	–	26.9 nM	14.5 nM	23.5 nM
UGUACCUUCACAGGAUAUCAUGCGAAAAUUGCGUGAGAAGGGUGAAUACGGUGUUAAUAAAAGCACAUGAGGAUCACCCAUGUA [SameState NG1 #56] (Eterna round: R96, puzzle: Same State NG 1)	303 nM	246 nM	471 nM	–	–	–
UGUACUUUCAUAGGAUAUCAUGCGAAAAUUGCGUGAGAAGGGUGAAUACUGUCUUUCUAAGAGUACAUGAGGAUCACCCAUGUA [SameState NG1 #63] (Eterna round: R96, puzzle: Same State NG 1)	77.3 nM	80.2 nM	67.5 nM	–	–	–
UGUUAACAUGAGGAUCACCCAUGUCAAAUGAAUCGAGGAUAUGGAAAGUAAUAAGAUGAACUAGAAGGUGAAGUUG [Altered State 1-19 - Jieux - Same State 1] (puzzle: Same State 1)	–	–	–	37.1 nM	55.7 nM	57.3 nM
UGUUAUUAGACAGGAUAUUGAAUGUUAAGUAUUAACAUGAGGAUCACCCAUGUAUUUGAUUGGUACAAGAAGGGUCAUGUUUGU [JR_SSNG2_Sub015] (Eterna round: R96, puzzle: Same State NG 2)	–	303 nM	–	–	–	–
UGUUGUAUUACAGGAUAUCUAGUAUUUUUAUUCAGAGAAGGGUAUUCACAUGAGGAUCACCCAUGUAUAUACGAGGAAGUUGUG [JMF's solution 56] (Eterna round: R96, puzzle: Same State NG 1)	–	34.1 nM	–	–	–	–
UGUUGUAUUACAGGAUAUCUAUGAUUUUUACUUAGAGAAGGGUAUUCACAUGAGGAUCACCCAUGUAUAUACGAGGAAGUUGUG [JMF's solution 67] (Eterna round: R96, puzzle: Same State NG 1)	47.2 nM	35.1 nM	44.2 nM	–	–	–
UGUUGUAUUACAGGAUAUCUAUUAGUUUUGUUUAGAGAAGGGUAUUCACAUGAGGAUCACCCAUGUAUAUACGAGGAAGUUGUG [JMF's solution 97] (Eterna round: R96, puzzle: Same State NG 1)	–	40.8 nM	–	–	–	–
